The labels stand for the following.
B1: 374_A10 (antibody, V domains shown)
VH: EVQLLESGGGLVQPGGSLRLSCAASGFTFSSYGMHWVRQAPGKGLEWVSGINYNGGYTSYADSVKGRFTISRDNSKNTLYLQMNSLRAEDTAVYYCARAATWHDTHLDYWGQGTLVTVSS
VL: DIQMTQSPSSLSASVGDRVTITCRASQSILSYVNWYQQKPGKAPKLLIYAATSRASGVPSRFSGSGSGTDFTLTISSLQPEDFATYYCQQSYDTPLTFGGGTKVEIK
notes: Group II
B2: 365_B04 (antibody, V domains shown)
VH: B1 VH with S49A, G50S, G55S, T101N, H106A
VL: B1 VL with S31T, V33L, A55H, Y92D, D93E, T94S
notes: Group I
B3: 365_A05 (antibody, V domains shown)
VH: B1 VH with G50S
VL: not shown
notes: Group II
B4: 368_C02 (antibody, V domains shown)
VH: B1 VH with S30D, S31D, G33S, H35N, S49A, G50N, T58K, S59G, A99G, T101N
VL: B1 VL with L30S, S31T, R54L, D93S
notes: Group III
B5: 375_F07 (antibody, V domains shown)
VH: B1 VH with S31D, G33S, H35N, G50N, S59G, A99G, T101N, H106A
VL: B1 VL with V33L, T94S
notes: Group III
B6: 375_F08 (antibody, V domains shown)
VH: B1 VH with H35N, G50S, G55S, T58K, A99G, T101N
VL: B1 VL with V33L, A55H, T94N
notes: Group III
B7: 375_B12 (antibody, V domains shown)
VH: B1 VH with S30D, G33S, H35N, S49A, T58K, A99G, T101N, H106A
VL: B1 VL with L30V, S31T, V33L
notes: Group III
B8: 376_A03 (antibody, V domains shown)
VH: B1 VH with H35N, S49A, S59G, A99G, T101N, H106A
VL: B1 VL with S31T, V33L, D93S
notes: Group III
B9: 376_C04 (antibody, V domains shown)
VH: B1 VH with H35N, G50N, S59G, A99G, T101N, H106A
VL: B1 VL with A51V, A55H, T94N
notes: Group III
B10: 376_C08 (antibody, V domains shown)
VH: B1 VH with S30D, G33S, H35N, S49A, G55S, S59G, A99G, T101N
VL: not shown
notes: Group III
B11: 375_E03 (antibody, V domains shown)
VH: B1 VH with S31D, G33S, H35N, S49A, G50N, S59G, A99G, T101N
VL: B1 VL with S31T, V33L, L47V, R54L, T94N
notes: Group III
B12: 376_B10 (antibody, V domains shown)
VH: B1 VH with S31D, G33S, H35N, S49A, T58K, S59G, A99G, T101N, H106A
VL: B1 VL with V33L, L47V, R54L, D93S
notes: Group III
B13: 375_D01 (antibody, V domains shown)
VH: B1 VH with G33S, H35N, S59G, A99G, T101N, H106A
VL: B1 VL with S31T, V33L, L47V, D93E
notes: Group III
B14: 375_G05 (antibody, V domains shown)
VH: B1 VH with G33S, H35N, S49A, A99G, T101N, H106A
VL: B1 VL with L30V, V33L, A51V, T94S
notes: Group III
B15: 376_B03 (antibody, V domains shown)
VH: B1 VH with G33S, H35N, S49A, G55S, T58K, A99G, T101N, H106A
VL: B1 VL with L47V, A51V, A55H, T94S
notes: Group III
B16: 375_E06 (antibody, V domains shown)
VH: B1 VH with G33S, H35N, T58K, A99G, T101N, H106A
VL: B1 VL with V33L, L47V, T94S
notes: Group III
B17: 376_E02 (antibody, V domains shown)
VH: B1 VH with G33S, H35N, S49A, T58K, S59G, A99G, T101N, H106A
VL: B1 VL with L47V, A55H, Y92D, D93N
notes: Group III
B18: 375_F02 (antibody, V domains shown)
VH: B1 VH with G33S, H35N, S49A, G50S, G55S, A99G, T101N
VL: B1 VL with V33L, T94S
notes: Group III
B19: 375_A12 (antibody, V domains shown)
VH: B1 VH with G33S, H35N, G55S, T58K, A99G, T101N, H106A
VL: B1 VL with V33L, L47V, A51V, D93E
notes: Group III
B20: 375_H05 (antibody, V domains shown)
VH: B1 VH with G33S, H35N, G50N, S59G, A99G, T101N, H106A
VL: B1 VL
notes: Group III
B21: 375_G04 (antibody, V domains shown)
VH: B1 VH with H35N, S49A, G50S, G55S, S59G, A99G, T101N
VL: B1 VL with L30V, R54L, T94S
notes: Group III
B22: 376_F01 (antibody, V domains shown)
VH: B1 VH with S31D, G33S, H35N, S49A, T58K, A99G, T101N, H106A
VL: not shown
notes: Group III
B23: 375_E05 (antibody, V domains shown)
VH: B1 VH with G33S, H35N, S49A, A99G, T101N, H106A
VL: B1 VL with V33L, L47V, R54L, D93S, T94S
notes: Group III
B24: 376_D07 (antibody, V domains shown)
VH: B1 VH with S30D, G33S, H35N, A99G, T101N
VL: not shown
notes: Group III
B25: 376_E11 (antibody, V domains shown)
VH: B1 VH with G33S, H35N, A99G, T101N, H106A
VL: B1 VL with S31T, L47V, D93E, T94L
notes: Group III
B26: 375_D10 (antibody, V domains shown)
VH: B1 VH with G33S, H35N, S49A, A99G, T101N, H106A
VL: B1 VL with S31T, Y92D, T94S
notes: Group III
B27: 375_E02 (antibody, V domains shown)
VH: B1 VH with S31D, G33S, H35N, S49A, A99G, T101N, H106A
VL: B1 VL with S31T, V33L, D93S, T94S
notes: Group III
B28: 375_C04 (antibody, V domains shown)
VH: B1 VH with S31D, G33S, H35N, S49A, A99G, T101N, H106A
VL: B1 VL with S31T, V33L, L47V, D93E, T94S
notes: Group III
B29: 375_H07 (antibody, V domains shown)
VH: B1 VH with G33S, H35N, S49A, A99G, T101N, H106A
VL: B1 VL with V33L, R54L, D93S, T94S
notes: Group III
B30: 369_A03 (antibody, V domains shown)
VH: B1 VH with H35N, G50N, S59G, A99S, T101N, H106A
VL: B1 VL with S31T, V33L, A51V, A55H, S91G, T94L

Substitutions are numbered along the chain they refer to.
Further: test concentration or dose not given here.

T4 sequence (P27037 20-135 limits assumed): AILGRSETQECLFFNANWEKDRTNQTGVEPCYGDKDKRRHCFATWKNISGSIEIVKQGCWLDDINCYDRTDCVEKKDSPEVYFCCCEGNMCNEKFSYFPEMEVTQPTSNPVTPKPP

The first test has as its target T1, human ACVR2A (human, UniProt P27037 20-135, limits assumed).
T1 construct: also called activin receptor, type II A
As to the kind of experiment: ELISA. A digest of the protocol:
(§1)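 mAb binding by ELISA; antigens: hu ACVR2A, mu ACVR2A; pos ctrl biotinylated goat anti-hu kappa LC; neg ctrl hu Fc.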
In general terms: An ELISA detects its analyte on a solid surface through an enzyme-linked reagent.
T1 sequence (P27037 20-135 limits assumed): as above
Molecule B1 displayed an optical density of 3.56 OD.
For B2, the optical density is 1.99 OD.
For the molecule B3, the optical density came to 2.34 OD.

Another test addresses mouse ACVR2A (mouse, UniProt P27038 20-135, limits assumed). As to the kind of experiment: ELISA. A digest of the protocol: as §1
Target sequence in this assay (P27038 20-135 limits assumed): as the sequence (P27037 20-135 limits assumed) above, with K20R, V73I counted along it
B1 returned an optical density of 3.59 OD.
B2 showed an optical density of 2.18 OD.
In the case of B3, the optical density turned out to be 2.23 OD.

The target of the next test is T2, human ACVR2A (human, UniProt P27037 20-135, limits assumed).
T2 construct: coated antigen of the initial ELISA; also called activin receptor, type II A
As to the kind of experiment: ELISA. A digest of the protocol:
as §1
T2 sequence (P27037 20-135 limits assumed): as the sequence (P27037 20-135 limits assumed) above
B4 displayed an optical density of 1.38 OD.
B5 had an optical density of 3.67 OD.
The molecule B6 registered an optical density of 3.5 OD.
Molecule B7 registered an optical density of 3.65 OD.
B8 returned an optical density of 3.61 OD.
B9 gave an optical density of 3.63 OD.
In turn, B10 showed an optical density of 3.61 OD.
The same measure, in the same setting: next, B11: 3.57 OD; B12: 3.6 OD; B13: 3.3 OD.
For the molecule B14, the optical density was determined as 3.71 OD.
In turn, B15 gave an optical density of 3.68 OD.
B16 gave an optical density of 3.85 OD.
Turning to B17, the optical density came to 3.3 OD.
Molecule B18 yielded an optical density of 3.6 OD.
On the same count and under the same terms, next, B19: 3.66 OD.
B20: the optical density was 3.35 OD.
As to B21, the optical density amounted to 2.91 OD.
Turning to B22, the optical density worked out at 2.77 OD.
With B23, the optical density came to 3.67 OD.
B24 showed an optical density of 3.38 OD.
Regarding B25, the optical density came out at 3.68 OD.
As to B26, the optical density turned out to be 3.26 OD.
Still for that read-out and setting: next, B27: 3.58 OD; B28: 3.68 OD.
With B29, the optical density was determined as 3.3 OD.

The next test deals with T3, mouse ACVR2A (mouse, UniProt P27038 20-135, limits assumed).
T3 construct: coated antigen of the initial ELISA
Put plainly: ELISA. A digest of the protocol: as §1
T3 sequence (P27038 20-135 limits assumed): as the sequence (P27037 20-135 limits assumed) above, with K20R, V73I counted along it
Molecule B4 registered an optical density of 1.49 OD.
B5 came in with an optical density of 3.71 OD.
As for B6, the optical density came out at 3.58 OD.
For the molecule B7, the optical density stood at 3.34 OD.
The molecule B8 came in with an optical density of 3.65 OD.
Regarding B9, the optical density came out at 3.65 OD.
On the same count and under the same terms, next, B10: 3.63 OD; B11: 3.64 OD; B12: 3.67 OD.
As to B13, the optical density is 3.61 OD.
Still for that read-out and setting: next, B14: 3.75 OD; B15: 3.67 OD.
Regarding B16, the optical density worked out at 3.67 OD.
Still for that read-out and setting: next, B17: 3.38 OD; B18: 3.65 OD; B19: 3.35 OD.
The same measure, in the same setting: next, B20: 3.33 OD.
The molecule B21 displayed an optical density of 3.29 OD.
Same read-out and setting: next, B22: 3.02 OD.
The same measure, in the same setting: in the case of B23 it was 3.71 OD; in that of B24, 3.44 OD.
On the same count and under the same terms, in the case of B25 it was 3.65 OD; in that of B26, 3.45 OD; in that of B27, 3.69 OD.
B28 had an optical density of 3.67 OD.
Molecule B29 gave an optical density of 3.29 OD.

A further test has as its target T4, Human ACVR2A (human, UniProt P27037 20-135, limits assumed).
T4 construct: also called activin receptor, type II A
As to the kind of experiment: ELISA. A digest of the protocol: as §1
Molecule B30 displayed an optical density of 0.451 OD.

The target of the next test is T5, biotinylated goat anti-human kappa light chain.
T5 construct: positive control of the ELISA
As to the kind of experiment: ELISA, positive control. A digest of the protocol:
as §1
B1 returned an optical density of 3 OD.
The molecule B2 returned an optical density of 3.12 OD.
The same measure, in the same setting: next, B3: 3.45 OD.

A further test addresses T6, biotinylated goat anti-human kappa light chain.
T6 construct: positive control of the ELISA
As to the kind of experiment: ELISA, positive control. The essentials: as §1
On to B4, for which the optical density was 3.51 OD.
Consider B5, for which the optical density turned out to be 3.22 OD.
B6 registered an optical density of 3.31 OD.
In turn, B7 displayed an optical density of 3.28 OD.
B8 came in with an optical density of 3.23 OD.
B9 displayed an optical density of 3.4 OD.
Still for that read-out and setting: next, B10: 3.46 OD.
B11: the optical density came to 3.18 OD.
The same measure, in the same setting: next, B12: 3.46 OD; B13: 3.1 OD.
In the case of B14, the optical density turned out to be 3.26 OD.
As to B15, the optical density is 3.52 OD.
Still for that read-out and setting: next, B16: 3.33 OD.
In turn, B17 displayed an optical density of 3.41 OD.
For B18, the optical density was 3.2 OD.
Turning to B19, the optical density is 3.14 OD.
On to B20, for which the optical density amounted to 3.17 OD.
Same read-out and setting: in the case of B21 it was 3.19 OD; in that of B22, 3.18 OD.
Take B23: the optical density was determined as 3.28 OD.
The molecule B24 came in with an optical density of 3.44 OD.
In turn, B25 returned an optical density of 3.47 OD.
B26: the optical density amounted to 3.21 OD.
As for B27, the optical density came to 3.2 OD.
The same measure, in the same setting: in the case of B28 it was 3.21 OD; in that of B29, 3.27 OD.

For a further test, the target named is T7, Goat anti-Human Kappa.
T7 construct: Positive control of the ELISA; also called biotinylated goat anti-human kappa light chain
As to the kind of experiment: ELISA, positive control. A digest of the protocol: as §1
In turn, B30 registered an optical density of 3.17 OD.
